Test results published in publication PMC13456277, “Direct interaction between RSV polymerase L and active Rab11a mediates viral ribonucleoprotein transport to assembly sites” (PLOS Pathogens, 2026).

Legend:
[1] = target: RSV L-Twin-Strep-tag + P-his (human respiratory syncytial virus, UniProt P28887 1-2165; P03421 1-241); assay: BLI
Target sequence in this assay (P28887 whole entry, chain 1 of 2): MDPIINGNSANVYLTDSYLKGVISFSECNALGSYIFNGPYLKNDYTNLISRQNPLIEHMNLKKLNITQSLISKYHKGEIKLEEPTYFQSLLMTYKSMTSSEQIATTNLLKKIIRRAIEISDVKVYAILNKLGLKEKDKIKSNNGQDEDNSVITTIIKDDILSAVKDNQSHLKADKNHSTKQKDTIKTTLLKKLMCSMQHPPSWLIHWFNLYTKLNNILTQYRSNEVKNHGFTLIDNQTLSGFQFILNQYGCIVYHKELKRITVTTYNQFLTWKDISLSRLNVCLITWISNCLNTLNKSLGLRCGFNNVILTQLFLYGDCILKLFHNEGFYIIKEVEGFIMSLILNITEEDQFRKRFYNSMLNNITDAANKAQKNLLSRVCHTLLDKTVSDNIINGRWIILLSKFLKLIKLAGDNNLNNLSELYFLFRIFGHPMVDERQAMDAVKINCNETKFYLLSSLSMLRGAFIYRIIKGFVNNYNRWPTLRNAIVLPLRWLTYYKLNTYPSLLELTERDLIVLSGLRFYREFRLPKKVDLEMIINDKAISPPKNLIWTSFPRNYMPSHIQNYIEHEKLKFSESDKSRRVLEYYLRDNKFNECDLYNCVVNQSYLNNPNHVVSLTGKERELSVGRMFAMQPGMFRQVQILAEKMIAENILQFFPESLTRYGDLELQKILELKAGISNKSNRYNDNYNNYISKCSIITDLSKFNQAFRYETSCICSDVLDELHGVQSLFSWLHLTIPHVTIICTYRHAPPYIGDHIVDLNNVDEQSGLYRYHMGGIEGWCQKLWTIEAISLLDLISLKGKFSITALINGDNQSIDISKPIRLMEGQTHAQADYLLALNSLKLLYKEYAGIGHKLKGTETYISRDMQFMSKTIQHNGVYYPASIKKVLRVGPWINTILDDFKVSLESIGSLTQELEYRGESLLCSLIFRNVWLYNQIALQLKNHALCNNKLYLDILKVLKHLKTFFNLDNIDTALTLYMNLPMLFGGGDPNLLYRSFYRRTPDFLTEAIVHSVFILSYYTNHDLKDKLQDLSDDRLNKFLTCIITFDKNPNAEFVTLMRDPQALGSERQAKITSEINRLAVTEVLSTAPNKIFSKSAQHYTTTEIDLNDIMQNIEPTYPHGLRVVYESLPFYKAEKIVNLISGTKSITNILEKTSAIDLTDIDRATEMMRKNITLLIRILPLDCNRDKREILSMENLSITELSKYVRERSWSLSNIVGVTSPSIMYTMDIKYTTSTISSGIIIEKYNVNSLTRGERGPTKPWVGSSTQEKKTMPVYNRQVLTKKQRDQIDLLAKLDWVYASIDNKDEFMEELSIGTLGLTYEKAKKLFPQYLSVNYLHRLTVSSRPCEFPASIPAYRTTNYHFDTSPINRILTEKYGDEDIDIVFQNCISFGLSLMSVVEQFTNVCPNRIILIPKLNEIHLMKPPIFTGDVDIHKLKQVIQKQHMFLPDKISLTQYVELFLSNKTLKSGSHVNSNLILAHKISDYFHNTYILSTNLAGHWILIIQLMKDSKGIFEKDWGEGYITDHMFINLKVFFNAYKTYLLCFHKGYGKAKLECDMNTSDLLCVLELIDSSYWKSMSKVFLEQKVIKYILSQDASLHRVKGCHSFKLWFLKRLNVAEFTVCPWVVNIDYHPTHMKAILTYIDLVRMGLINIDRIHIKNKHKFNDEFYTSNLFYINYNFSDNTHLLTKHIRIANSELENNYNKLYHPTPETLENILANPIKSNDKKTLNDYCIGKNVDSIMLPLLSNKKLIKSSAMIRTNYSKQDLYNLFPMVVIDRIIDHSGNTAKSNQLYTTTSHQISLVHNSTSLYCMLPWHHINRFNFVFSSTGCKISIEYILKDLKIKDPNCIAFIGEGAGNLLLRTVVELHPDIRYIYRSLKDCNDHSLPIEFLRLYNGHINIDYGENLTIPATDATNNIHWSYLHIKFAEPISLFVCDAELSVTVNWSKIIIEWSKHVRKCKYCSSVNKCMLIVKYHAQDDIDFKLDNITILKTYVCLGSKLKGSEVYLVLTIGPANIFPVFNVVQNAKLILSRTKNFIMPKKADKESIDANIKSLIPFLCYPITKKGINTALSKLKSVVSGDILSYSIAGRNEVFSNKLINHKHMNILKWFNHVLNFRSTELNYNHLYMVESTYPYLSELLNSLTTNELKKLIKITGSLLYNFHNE
Target sequence in this assay (P03421 whole entry, chain 2 of 2): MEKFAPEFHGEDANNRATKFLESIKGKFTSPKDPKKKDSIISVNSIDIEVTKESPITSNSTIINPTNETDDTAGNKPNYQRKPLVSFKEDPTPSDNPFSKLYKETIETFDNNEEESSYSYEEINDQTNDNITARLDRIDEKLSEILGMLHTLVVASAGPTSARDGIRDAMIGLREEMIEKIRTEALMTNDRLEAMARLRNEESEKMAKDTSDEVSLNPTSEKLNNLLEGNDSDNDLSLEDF

[2] = target: T1, RSV L-Twin-Strep-tag + P-his (human respiratory syncytial virus, UniProt P28887 1-2165; P03421 1-241); assay: BLI; Octet RED 384, 25°C; L-Twin-Strep-tag + P-his loaded on Ni-NTA sensors; two-fold dilutions of GST-Rab11a (with 1 mM GTP) or GST-Rab11a CA from 50 nM to 3.2 µM; association 60 min to steady state, dissociation 5 min; apparent KD from steady-state responses, one-site model, double referenced; details: both partners purified
T1 construct: RSV large polymerase L, codon-optimized; RSV phosphoprotein P, codon-optimized; L as in m21; also called L-P^-his; L-P complexes; source: Sf9, baculovirus, purified (Strep-Trap XT, SEC Superose 6); not shown: Twin-Strep-tag, C-terminal, kept; His6, C-terminal, kept
T1 sequence (P28887 whole entry, chain 1 of 2): as the sequence (P28887 whole entry, chain 1 of 2) above
T1 sequence (P03421 whole entry, chain 2 of 2): as the sequence (P03421 whole entry, chain 2 of 2) above

B1: GST-Rab11a(Q70L) CA (natural protein)
chain: MGTRDDEYDYLFKVVLIGDSGVGKSNLLSRFTRNEFNLESKSTIGVEFATRSIQVDGKTIKAQIWDTAGLERYRAITSAYYRGAVGALLVYDIAKHLTYENVERWLKELRDHADSNIVIMLVGNKSDLRHLRAVPTDEARAFAEKNGLSFIETSALDSTNVEAAFQTILTEIYRIVSQKQMSDRRENDMSPSNNVVPIHVPPTTENKPKVQCCQNI
[1]
  Kd: 1200 nM

B2: GST-Rab11a WT (natural protein, human, UniProt P62491 1-216, looked up)
chain: MGTRDDEYDYLFKVVLIGDSGVGKSNLLSRFTRNEFNLESKSTIGVEFATRSIQVDGKTIKAQIWDTAGQERYRAITSAYYRGAVGALLVYDIAKHLTYENVERWLKELRDHADSNIVIMLVGNKSDLRHLRAVPTDEARAFAEKNGLSFIETSALDSTNVEAAFQTILTEIYRIVSQKQMSDRRENDMSPSNNVVPIHVPPTTENKPKVQCCQNI
notes: human Rab11a; pGEX 4T-3; Used with or without 1 mM GTP; also called GST-Rab11a wild-type; source: E. coli BL21, purified (Glutathione Sepharose 4B, SEC Superdex 200); not shown: GST, N-terminal, kept
[2]
  Kd: 300 nM
